Experimental data from publication PMC12727980.

Assays:
[1] = biological target: T1, GST-KH (Bicc1 KH domains) (UniProt Q99MQ1); test: competition; conditions: EMSA buffer 1X: 10 mM Tris-HCl pH 8.0, 100 mM KCl, 2.5 mM MgCl2, 2.5% glycerol (slightly below 1X in some mixes); about 1 mM DTT, 0.05 ug/uL yeast tRNA; 50 nM …
T1 sequence (Q99MQ1 whole entry, looked up): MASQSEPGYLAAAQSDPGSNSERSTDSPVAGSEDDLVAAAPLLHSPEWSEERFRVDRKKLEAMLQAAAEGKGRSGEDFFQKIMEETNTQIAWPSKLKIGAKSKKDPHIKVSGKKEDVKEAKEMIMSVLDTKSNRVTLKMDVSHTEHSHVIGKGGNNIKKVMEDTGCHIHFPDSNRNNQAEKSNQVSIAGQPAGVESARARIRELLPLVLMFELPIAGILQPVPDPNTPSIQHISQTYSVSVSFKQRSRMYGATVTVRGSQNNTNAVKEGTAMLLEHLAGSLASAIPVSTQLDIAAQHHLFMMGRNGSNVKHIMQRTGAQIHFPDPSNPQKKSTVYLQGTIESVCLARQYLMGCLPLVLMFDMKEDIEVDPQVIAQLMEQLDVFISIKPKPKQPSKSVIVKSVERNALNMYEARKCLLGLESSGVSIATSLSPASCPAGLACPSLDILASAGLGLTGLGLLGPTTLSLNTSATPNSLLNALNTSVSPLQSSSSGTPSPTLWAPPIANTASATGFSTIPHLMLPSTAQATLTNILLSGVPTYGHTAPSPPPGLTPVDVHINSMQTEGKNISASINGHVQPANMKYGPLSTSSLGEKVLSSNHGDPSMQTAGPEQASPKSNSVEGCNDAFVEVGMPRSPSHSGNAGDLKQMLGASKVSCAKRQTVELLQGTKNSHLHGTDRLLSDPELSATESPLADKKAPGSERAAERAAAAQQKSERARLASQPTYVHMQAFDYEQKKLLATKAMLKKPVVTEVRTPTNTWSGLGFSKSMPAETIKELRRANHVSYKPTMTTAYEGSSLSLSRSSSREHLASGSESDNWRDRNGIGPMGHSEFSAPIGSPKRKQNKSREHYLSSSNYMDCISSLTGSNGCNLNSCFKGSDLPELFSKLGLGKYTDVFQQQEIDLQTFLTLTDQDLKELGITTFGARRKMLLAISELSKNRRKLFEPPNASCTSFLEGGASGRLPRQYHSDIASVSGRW

[2] = biological target: T1, GST-KH (Bicc1 KH domains); test: EMSA; conditions: EMSA buffer 1X: 10 mM Tris-HCl pH 8.0, 100 mM KCl, 2.5 mM MgCl2, 2.5% glycerol (slightly below 1X in some mixes); about 1 mM DTT, 0.05 ug/uL yeast tRNA; 50 nM …

Sequence	IC50 [1]	Kd [2]
GAAGAAAAAGGUGACCUGAAUGAUGUGCAUCGGGUCAAGAGAGCAGAA [Dand5 3'UTR66-110 Mut untagged competitor]	> 1000 nM	
GAAGAAAGACGUGACCUGAAUGAUGUGCAUCGGGUCAAGAGAGCAGAAUGUCUGGGCAACAGGCUCAGG / CTGAGCCTGTTGCCCAGAC [Dand5 3'UTR66-110 WT Tag#1 annealed to Probe #1]		103 nM
GAAGAAAGACGUGACCUGAAUGAUGUGCAUCGGGUCAAGAGAGCAGAAACACGUACCGAGAUGGUGCGC / CGCACCATCTCGGTACGTG [Dand5 3'UTR66-110 WT Tag#2 annealed to Probe #2]		109 nM
